From paper doi:10.1101/2020.07.15.204800 (bioRxiv, 2020)

Molecular target: T1, PQLC2-FLAG wild type (human, UniProt Q6ZP29 1-291)
T1 sequence: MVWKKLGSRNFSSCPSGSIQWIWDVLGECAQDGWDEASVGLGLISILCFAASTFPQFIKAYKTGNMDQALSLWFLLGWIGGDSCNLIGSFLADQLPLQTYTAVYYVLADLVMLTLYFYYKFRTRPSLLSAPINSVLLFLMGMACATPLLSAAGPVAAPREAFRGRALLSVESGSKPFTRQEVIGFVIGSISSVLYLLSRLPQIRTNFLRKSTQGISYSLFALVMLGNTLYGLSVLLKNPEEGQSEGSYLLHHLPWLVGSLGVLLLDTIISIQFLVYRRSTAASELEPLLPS
Assay: pull-down

B1: GST-WDR41-PIP (GST fused to the 10 amino acid PIP sequence) (peptide)
chain: TGFFNMWGFG
B1: binds.
